{
  "source": "the Human Domainome abundance scans (Beltran et al. 2025)",
  "note": "± gives the uncertainty stated by the source.",
  "data": [
    {"experiment": "abundance fitness (aPCA) (normalised: wild type 0, dead -1); higher = more abundant; growth selection in yeast, the domain comes from the species named", "conditions": "Homo sapiens", "values": [
      {"substance": "Heterogeneous nuclear ribonucleoprotein U-like protein 2 A30M, Q1KMD3", "abundance fitness": "0.067 ± 0.084"},
      {"substance": "Heterogeneous nuclear ribonucleoprotein U-like protein 2 A39E, Q1KMD3", "abundance fitness": "-0.015 ± 0.064"},
      {"substance": "Heterogeneous nuclear ribonucleoprotein U-like protein 2 D21S, Q1KMD3", "abundance fitness": "-0.165 ± 0.066"},
      {"substance": "Heterogeneous nuclear ribonucleoprotein U-like protein 2 E35A, Q1KMD3", "abundance fitness": "0.036 ± 0.052"},
      {"substance": "Heterogeneous nuclear ribonucleoprotein U-like protein 2 Q16K, Q1KMD3", "abundance fitness": "0.049 ± 0.092"},
      {"substance": "Heterogeneous nuclear ribonucleoprotein U-like protein 2 Q31D, Q1KMD3", "abundance fitness": "-0.194 ± 0.11"},
      {"substance": "Heterogeneous nuclear ribonucleoprotein U-like protein 2 S13D, Q1KMD3", "abundance fitness": "0.114 ± 0.067"},
      {"substance": "Heterogeneous nuclear ribonucleoprotein U-like protein 2 S22D, Q1KMD3", "abundance fitness": "0.187 ± 0.09"},
      {"substance": "Heterogeneous nuclear ribonucleoprotein U-like protein 2 V27A, Q1KMD3", "abundance fitness": "0.131 ± 0.053"},
      {"substance": "NEDD4-like E3 ubiquitin-protein ligase WWP2 A445C, O00308", "abundance fitness": "0.056 ± 0.03"},
      {"substance": "NEDD4-like E3 ubiquitin-protein ligase WWP2 A445D, O00308", "abundance fitness": "0.121 ± 0.078"},
      {"substance": "NEDD4-like E3 ubiquitin-protein ligase WWP2 A445E, O00308", "abundance fitness": "0.025 ± 0.05"},
      {"substance": "NEDD4-like E3 ubiquitin-protein ligase WWP2 A445F, O00308", "abundance fitness": "0.007 ± 0.035"},
      {"substance": "NEDD4-like E3 ubiquitin-protein ligase WWP2 A445H, O00308", "abundance fitness": "0.069 ± 0.081"},
      {"substance": "NEDD4-like E3 ubiquitin-protein ligase WWP2 A445I, O00308", "abundance fitness": "-0.016 ± 0.049"},
      {"substance": "NEDD4-like E3 ubiquitin-protein ligase WWP2 A445K, O00308", "abundance fitness": "-0.01 ± 0.074"},
      {"substance": "NEDD4-like E3 ubiquitin-protein ligase WWP2 A445L, O00308", "abundance fitness": "0 ± 0.039"},
      {"substance": "NEDD4-like E3 ubiquitin-protein ligase WWP2 A445M, O00308", "abundance fitness": "-0.073 ± 0.052"},
      {"substance": "NEDD4-like E3 ubiquitin-protein ligase WWP2 A445N, O00308", "abundance fitness": "0.103 ± 0.073"},
      {"substance": "NEDD4-like E3 ubiquitin-protein ligase WWP2 A445P, O00308", "abundance fitness": "-0.14 ± 0.07"},
      {"substance": "NEDD4-like E3 ubiquitin-protein ligase WWP2 A445Q, O00308", "abundance fitness": "0.031 ± 0.049"},
      {"substance": "NEDD4-like E3 ubiquitin-protein ligase WWP2 A445R, O00308", "abundance fitness": "0.077 ± 0.039"},
      {"substance": "NEDD4-like E3 ubiquitin-protein ligase WWP2 A445S, O00308", "abundance fitness": "0.04 ± 0.048"},
      {"substance": "NEDD4-like E3 ubiquitin-protein ligase WWP2 A445T, O00308", "abundance fitness": "-0.211 ± 0.073"},
      {"substance": "NEDD4-like E3 ubiquitin-protein ligase WWP2 A445V, O00308", "abundance fitness": "-0.001 ± 0.06"},
      {"substance": "NEDD4-like E3 ubiquitin-protein ligase WWP2 A445W, O00308", "abundance fitness": "-0.074 ± 0.062"},
      {"substance": "NEDD4-like E3 ubiquitin-protein ligase WWP2 A445Y, O00308", "abundance fitness": "-0.002 ± 0.048"},
      {"substance": "NEDD4-like E3 ubiquitin-protein ligase WWP2 A490C, O00308", "abundance fitness": "-0.01 ± 0.051"},
      {"substance": "NEDD4-like E3 ubiquitin-protein ligase WWP2 A490D, O00308", "abundance fitness": "0.001 ± 0.061"},
      {"substance": "NEDD4-like E3 ubiquitin-protein ligase WWP2 A490E, O00308", "abundance fitness": "0.024 ± 0.062"},
      {"substance": "NEDD4-like E3 ubiquitin-protein ligase WWP2 A490F, O00308", "abundance fitness": "-0.081 ± 0.051"},
      {"substance": "NEDD4-like E3 ubiquitin-protein ligase WWP2 A490G, O00308", "abundance fitness": "-0.007 ± 0.039"},
      {"substance": "NEDD4-like E3 ubiquitin-protein ligase WWP2 A490H, O00308", "abundance fitness": "-0.316 ± 0.078"},
      {"substance": "NEDD4-like E3 ubiquitin-protein ligase WWP2 A490I, O00308", "abundance fitness": "0.089 ± 0.077"},
      {"substance": "NEDD4-like E3 ubiquitin-protein ligase WWP2 A490K, O00308", "abundance fitness": "0.007 ± 0.037"},
      {"substance": "NEDD4-like E3 ubiquitin-protein ligase WWP2 A490L, O00308", "abundance fitness": "-0.047 ± 0.037"},
      {"substance": "NEDD4-like E3 ubiquitin-protein ligase WWP2 A490M, O00308", "abundance fitness": "0.033 ± 0.053"},
      {"substance": "NEDD4-like E3 ubiquitin-protein ligase WWP2 A490N, O00308", "abundance fitness": "-0.195 ± 0.082"},
      {"substance": "NEDD4-like E3 ubiquitin-protein ligase WWP2 A490P, O00308", "abundance fitness": "-0.128 ± 0.065"},
      {"substance": "NEDD4-like E3 ubiquitin-protein ligase WWP2 A490Q, O00308", "abundance fitness": "0.029 ± 0.069"},
      {"substance": "NEDD4-like E3 ubiquitin-protein ligase WWP2 A490R, O00308", "abundance fitness": "-0.047 ± 0.035"},
      {"substance": "NEDD4-like E3 ubiquitin-protein ligase WWP2 A490S, O00308", "abundance fitness": "-0.013 ± 0.048"},
      {"substance": "NEDD4-like E3 ubiquitin-protein ligase WWP2 A490V, O00308", "abundance fitness": "-0.05 ± 0.032"},
      {"substance": "NEDD4-like E3 ubiquitin-protein ligase WWP2 A490W, O00308", "abundance fitness": "-0.185 ± 0.046"},
      {"substance": "NEDD4-like E3 ubiquitin-protein ligase WWP2 A490Y, O00308", "abundance fitness": "-0.09 ± 0.061"},
      {"substance": "NEDD4-like E3 ubiquitin-protein ligase WWP2 D464A, O00308", "abundance fitness": "-0.797 ± 0.036"},
      {"substance": "NEDD4-like E3 ubiquitin-protein ligase WWP2 D464C, O00308", "abundance fitness": "-0.438 ± 0.074"},
      {"substance": "NEDD4-like E3 ubiquitin-protein ligase WWP2 D464E, O00308", "abundance fitness": "-0.372 ± 0.047"},
      {"substance": "NEDD4-like E3 ubiquitin-protein ligase WWP2 D464F, O00308", "abundance fitness": "-0.903 ± 0.12"},
      {"substance": "NEDD4-like E3 ubiquitin-protein ligase WWP2 D464I, O00308", "abundance fitness": "-1.28 ± 0.14"},
      {"substance": "NEDD4-like E3 ubiquitin-protein ligase WWP2 D464K, O00308", "abundance fitness": "-0.972 ± 0.11"},
      {"substance": "NEDD4-like E3 ubiquitin-protein ligase WWP2 D464N, O00308", "abundance fitness": "-0.138 ± 0.073"},
      {"substance": "NEDD4-like E3 ubiquitin-protein ligase WWP2 D464P, O00308", "abundance fitness": "-0.921 ± 0.15"},
      {"substance": "NEDD4-like E3 ubiquitin-protein ligase WWP2 D464Q, O00308", "abundance fitness": "-0.508 ± 0.075"},
      {"substance": "NEDD4-like E3 ubiquitin-protein ligase WWP2 D464R, O00308", "abundance fitness": "-0.94 ± 0.041"},
      {"substance": "NEDD4-like E3 ubiquitin-protein ligase WWP2 D464S, O00308", "abundance fitness": "-0.565 ± 0.056"},
      {"substance": "NEDD4-like E3 ubiquitin-protein ligase WWP2 D464V, O00308", "abundance fitness": "-1.03 ± 0.061"},
      {"substance": "NEDD4-like E3 ubiquitin-protein ligase WWP2 D464W, O00308", "abundance fitness": "-1.21 ± 0.14"},
      {"substance": "NEDD4-like E3 ubiquitin-protein ligase WWP2 D464Y, O00308", "abundance fitness": "-0.693 ± 0.12"},
      {"substance": "NEDD4-like E3 ubiquitin-protein ligase WWP2 D474A, O00308", "abundance fitness": "-0.168 ± 0.037"},
      {"substance": "NEDD4-like E3 ubiquitin-protein ligase WWP2 D474C, O00308", "abundance fitness": "-0.288 ± 0.057"},
      {"substance": "NEDD4-like E3 ubiquitin-protein ligase WWP2 D474E, O00308", "abundance fitness": "-0.192 ± 0.074"},
      {"substance": "NEDD4-like E3 ubiquitin-protein ligase WWP2 D474F, O00308", "abundance fitness": "-0.376 ± 0.086"},
      {"substance": "NEDD4-like E3 ubiquitin-protein ligase WWP2 D474H, O00308", "abundance fitness": "-0.095 ± 0.097"},
      {"substance": "NEDD4-like E3 ubiquitin-protein ligase WWP2 D474I, O00308", "abundance fitness": "-0.069 ± 0.092"},
      {"substance": "NEDD4-like E3 ubiquitin-protein ligase WWP2 D474K, O00308", "abundance fitness": "-0.505 ± 0.14"},
      {"substance": "NEDD4-like E3 ubiquitin-protein ligase WWP2 D474L, O00308", "abundance fitness": "-0.326 ± 0.061"},
      {"substance": "NEDD4-like E3 ubiquitin-protein ligase WWP2 D474M, O00308", "abundance fitness": "-0.224 ± 0.063"},
      {"substance": "NEDD4-like E3 ubiquitin-protein ligase WWP2 D474N, O00308", "abundance fitness": "-0.332 ± 0.065"},
      {"substance": "NEDD4-like E3 ubiquitin-protein ligase WWP2 D474P, O00308", "abundance fitness": "-0.332 ± 0.085"},
      {"substance": "NEDD4-like E3 ubiquitin-protein ligase WWP2 D474Q, O00308", "abundance fitness": "-0.279 ± 0.073"},
      {"substance": "NEDD4-like E3 ubiquitin-protein ligase WWP2 D474R, O00308", "abundance fitness": "-0.19 ± 0.039"},
      {"substance": "NEDD4-like E3 ubiquitin-protein ligase WWP2 D474S, O00308", "abundance fitness": "-0.406 ± 0.061"},
      {"substance": "NEDD4-like E3 ubiquitin-protein ligase WWP2 D474T, O00308", "abundance fitness": "-0.442 ± 0.079"},
      {"substance": "NEDD4-like E3 ubiquitin-protein ligase WWP2 D474V, O00308", "abundance fitness": "-0.387 ± 0.067"},
      {"substance": "NEDD4-like E3 ubiquitin-protein ligase WWP2 D474W, O00308", "abundance fitness": "-0.253 ± 0.048"},
      {"substance": "NEDD4-like E3 ubiquitin-protein ligase WWP2 D474Y, O00308", "abundance fitness": "-0.251 ± 0.097"},
      {"substance": "NEDD4-like E3 ubiquitin-protein ligase WWP2 D492A, O00308", "abundance fitness": "-0.174 ± 0.054"},
      {"substance": "NEDD4-like E3 ubiquitin-protein ligase WWP2 D492C, O00308", "abundance fitness": "-0.146 ± 0.061"},
      {"substance": "NEDD4-like E3 ubiquitin-protein ligase WWP2 D492E, O00308", "abundance fitness": "0.039 ± 0.065"},
      {"substance": "NEDD4-like E3 ubiquitin-protein ligase WWP2 D492F, O00308", "abundance fitness": "-0.217 ± 0.044"},
      {"substance": "NEDD4-like E3 ubiquitin-protein ligase WWP2 D492G, O00308", "abundance fitness": "-0.158 ± 0.051"},
      {"substance": "NEDD4-like E3 ubiquitin-protein ligase WWP2 D492I, O00308", "abundance fitness": "-0.212 ± 0.057"},
      {"substance": "NEDD4-like E3 ubiquitin-protein ligase WWP2 D492K, O00308", "abundance fitness": "0.029 ± 0.074"},
      {"substance": "NEDD4-like E3 ubiquitin-protein ligase WWP2 D492L, O00308", "abundance fitness": "-0.149 ± 0.061"},
      {"substance": "NEDD4-like E3 ubiquitin-protein ligase WWP2 D492N, O00308", "abundance fitness": "-0.137 ± 0.069"},
      {"substance": "NEDD4-like E3 ubiquitin-protein ligase WWP2 D492P, O00308", "abundance fitness": "-0.249 ± 0.076"}
    ]}
  ]
}
